Legend:
TNF-α [1] = assay: competition ELISA against plate-bound TNFRI190; relative affinity from IC50
TNF-α [2] = assay: cell-based or functional assay

Substance | Result Affinity (%) relative to wild-type TNFRI126 (TNF-α [1]) [%] | Relative activity (cell based assay) (Folds) (TNF-α [2]) [fold]
Met-TNFRI126 (from UniProt P19438 41-166) (receptor) | 100 | –
Met-TNFRI171 (from UniProt P19438 41-211) (receptor) | – | 1

From US20130237472A1
